Assay results taken from PMC7318136.

Key:
Assay in all cases: NMR
Conditions in all cases: 300 K; not stated; 20 mM sodium phosphate; phosphoric acid (20 %) added for lower pH, NaOH (1 M) for higher pH; samples dialysed overnight; folded isolated PsbO-β, 9-14 mg/mL, free of PSII partners
[1] = target: Asp79 (UniProt position 105, …)
[2] = target: Glu84 (UniProt position 110, …)
[3] = target: Asp141 (UniProt position 167, …)
[4] = target: Asp23 (UniProt position 49, …)
[5] = target: Asp205 (UniProt position 231, …)
[6] = target: Glu218 (UniProt position 244, …)
[7] = target: Glu232 (UniProt position 258, …)
[8] = target: Asp33 (UniProt position 59, …)
[9] = target: Glu216 (UniProt position 242, …)
[10] = target: Asp24 (UniProt position 50, …)
[11] = target: Glu64 (UniProt position 90, …)
[12] = target: Asp99 (UniProt position 125, …)
[13] = target: Glu145 (UniProt position 171, …)
[14] = target: Glu210 (UniProt position 236, …)
[15] = target: Glu114 (UniProt position 140, …)
[16] = target: Glu244 (UniProt position 270, FYASIEPA---)
[17] = target: Asp90 (UniProt position 116, …)
[18] = target: Asp102 (UniProt position 128, …)
[19] = target: Glu74 (UniProt position 100, …)
[20] = target: Glu98 (UniProt position 124, …)
[21] = target: Glu54 (UniProt position 80, …)

B1: PsbO-β (β-barrel construct of photosystem II manganese-stabilizing protein PsbO) (Thermosynechococcus elongatus; deletion of 1-15; deletion of 55-63 (replaced … (protein)
chain: MNHKCPTLDDTARGAYPIDSSQTYRIARLCLQPTTFLVKENGEFVPTKLVTRETTSLDQIQGELKVNSDGSLTFVEEDGIDFQPVTVQMAGGERIPLLFTVKNLVASTQPNVTSITTSTDFKGEFNVNGTKGQISLNVAKVDGRTGEIAGTFESEQLSNGHEVKIQGVFYASIEPA
[1]
  pKa: <2.5
[2]
  pKa: 4.64±0.07
[3]
  pKa: 4.89±0.03
[4]
  pKa: 3.41±0.05
[5]
  pKa: 3.45±0.09
[6]
  pKa: 5.13±0.07
[7]
  pKa: 4.20±0.10
[8]
  pKa: 3.47±0.05
[9]
  pKa: 3.91±0.10
[10]
  pKa: 3.06±0.03
[11]
  pKa: 4.17±0.04
[12]
  pKa: <5
[13]
  pKa: 4.52±0.04
[14]
  pKa: 2.66±0.12
[15]
  pKa: 3.81±0.08
[16]
  pKa: 4.97±0.08
[17]
  pKa: 1.56±0.14
[18]
  pKa: >7
[19]
  pKa: 3.37±0.05
[20]
  pKa: 4.99±0.04
[21]
  pKa: 4.47±0.06
